Biological target: V5-FoTO1 (Taxus media)
Test: co-IP

T5αH-HA (from UniProt Q6WG30 1-499) (enzyme)
fold change of the co-IP signal with 400 uM taxadiene in the lysate: 4 fold

Source: PMC11580873
